These results are taken from US20190016826A1 (Genentech, published 2019).

Experiment [1] addresses T1, Full length human HtrA1 (HuHtrA1) (Q23-P480), N-terminal His6 tag (human, UniProt Q92743 23-480).
T1 construct: Expressed in Trichoplusia ni insect cells
The experiment in a line: SPR (BIAcore T100), single-cycle kinetics, biotinylated human HtrA1 captured on streptavidin, Fab in solution. The source says:
(§1) To determine the binding affinity of HtrA1 antibodies by single cycle kinetics, Surface Plasmon Resonance (SRP) measurement with a BIAcore™ T100 instrument was used. Briefly, a series S sensor chip CM5 was activated with EDC and NHS reagents according to the supplier's instructions, and streptavidin (Pierce) was coupled to achieve approximately 2000 response units (RU), followed by blocking un-reacted groups with 1M ethanolamine.
(§2) For kinetics measurements, biotinylated human or murine HtrA1 was first injected at 10 ul/min flow rate to capture approximately 100 RU at 3 different flow cells (FC), except for FC1 (reference), and then 5-fold serial dilutions of anti-HtrA1 Fab in HBS-P buffer (0.01M HEPES pH 7.4, 0.15M NaCl, 0.005% surfactant P20) from low (0.48 nM) to high (300 nM) [5 points] were injected (flow rate: 30 μl/min) one after the other in the same cycle with no regeneration between injections. The sensorgram was recorded and subject to reference and buffer subtraction before evaluation by BIAcore™ T100 Evaluation Software (version 2.0). Association rates (km) and dissociation rates (koff) were calculated using a simple one-to-one Langmuir binding model. The equilibrium dissociation constant (Kd) was calculated as the ratio koff/kₒₙ.
(Surface plasmon resonance follows binding to a sensor surface in real time, without labels.)

In experiment [2] the target is T2, Protease domain of human HtrA1 (HuHtrA1_PD), residues D161-K379 (human, UniProt F1N152 168-386 (bovine entry)).
T2 construct: Expressed in E. coli; not shown: thrombin cleavage site between tag and D161
The experiment in a line: ELISA on plate-coated wild-type HuHtrA1_PD, row WT (Example 7); column head on the sheet reads YW505.94 Fab, legend paragraph 70 says IgG94. On the procedure: The mutants were expressed in E. coli and the trimers purified by size exclusion chromatography as described in Example 2. Binding was determined using an ELISA assay, which was conducted using a MAXISORP™ microtiter plate coated with HuHtrA1_PD mutants at 2 μg/ml in PBS for 1 h, followed by blocking with PBST buffer (0.5% BSA and 0.05% Tween 20 in PBS) for 1 h at room temperature. […] The plates were washed with PBT buffer (0.05% Tween 20 in PBS), and HRP-conjugated goat anti-human IgG (H+L) (Invitrogen) was added (1:5000 in PBST buffer) and incubated for 1 h. The plates were washed with PBT buffer and developed by adding tetramethylbenzidine substrate (Kirkegaard and Perry Laboratories, Gaithersburg, Md.). The absorbance at 450 nm was plotted as a function of antibody concentration in solution to determine EC₅₀ values.
On the technique in general: ELISA stands for enzyme-linked immunosorbent assay.

For experiment [3], the target named is T3, Full length murine HtrA1 (MuHtrA1) (P24-P480), N-terminal His6 tag (murine, UniProt Q9R118 24-480).
T3 construct: Expressed in insect cells
The experiment in a line: SPR (BIAcore T100), single-cycle kinetics, biotinylated murine HtrA1 captured on streptavidin, Fab in solution.
Text: as §1, §2

Experiment [4] concerns the target T1, Full length human HtrA1 (HuHtrA1) …. The experiment in a line: cell-based or functional assay.

T1 sequence (Q92743 other isoform, or with tags, fused parts or gaps): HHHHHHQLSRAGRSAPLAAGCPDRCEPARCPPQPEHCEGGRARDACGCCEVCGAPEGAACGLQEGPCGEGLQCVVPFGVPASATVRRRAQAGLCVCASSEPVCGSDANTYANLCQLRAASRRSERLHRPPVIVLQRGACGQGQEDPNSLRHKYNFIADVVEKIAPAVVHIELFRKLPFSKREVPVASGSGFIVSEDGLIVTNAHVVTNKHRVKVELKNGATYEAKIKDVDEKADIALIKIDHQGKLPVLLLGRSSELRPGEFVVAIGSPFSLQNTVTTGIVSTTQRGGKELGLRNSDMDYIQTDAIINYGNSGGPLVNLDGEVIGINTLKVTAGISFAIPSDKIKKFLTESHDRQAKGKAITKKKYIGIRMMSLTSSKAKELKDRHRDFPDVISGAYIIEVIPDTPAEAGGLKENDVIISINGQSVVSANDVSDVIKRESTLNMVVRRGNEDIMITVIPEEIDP
T3 sequence (Q9R118 other isoform, or with tags, fused parts or gaps): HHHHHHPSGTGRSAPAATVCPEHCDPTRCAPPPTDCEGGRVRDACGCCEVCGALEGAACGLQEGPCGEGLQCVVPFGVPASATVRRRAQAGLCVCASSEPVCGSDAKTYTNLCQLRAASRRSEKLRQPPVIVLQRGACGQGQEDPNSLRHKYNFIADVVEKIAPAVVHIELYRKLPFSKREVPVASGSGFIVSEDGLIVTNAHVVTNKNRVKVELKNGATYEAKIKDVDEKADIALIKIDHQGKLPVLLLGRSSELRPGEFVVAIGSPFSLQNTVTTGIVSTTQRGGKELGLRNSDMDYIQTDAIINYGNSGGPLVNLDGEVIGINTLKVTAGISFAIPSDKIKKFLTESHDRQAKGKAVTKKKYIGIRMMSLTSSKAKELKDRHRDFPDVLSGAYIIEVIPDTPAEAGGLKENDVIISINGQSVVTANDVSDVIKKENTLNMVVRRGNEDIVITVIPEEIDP
T2 sequence (F1N152 other isoform, or with tags, fused parts or gaps): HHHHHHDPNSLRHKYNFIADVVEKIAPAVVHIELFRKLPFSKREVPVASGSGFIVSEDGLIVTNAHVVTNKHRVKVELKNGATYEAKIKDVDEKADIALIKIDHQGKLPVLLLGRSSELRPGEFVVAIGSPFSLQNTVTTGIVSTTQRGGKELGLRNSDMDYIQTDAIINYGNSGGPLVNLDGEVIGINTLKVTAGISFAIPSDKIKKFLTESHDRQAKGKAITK

B1: Fab94 (anti-HtrA1 antibody YW505.94, Fab format) (Fab, V domains shown)
VH: EVQLVESGGGLVQPGGSLRLSCAASGFNISGYYIHWVRQAPGKGLEWVGWIDPYGGDTNYADSVKGRFTISADTSKNTAYLQMNSLRAEDTAVYYCARGTFLTSWGHYFDYWGQGT
VL: DIQMTQSPSSLSASVGDRVTITCRASQDVSTAVAWYQQKPGKAPKLLIYSASFLYSGVPSRFSGSGSGTDFTLTISSLQPEDFATYYCQQSYTTPPTFGQGTKVEIKR
A word on the Kd: it is the concentration at which binding is half-saturated. Read a low Kd as a tighter complex. What is called koff is a measure of how fast the partners let go of each other. Read a low koff as slow dissociation. Broadly, the kon is the second-order rate constant of association. A low value points to slow association. In general, EC50 refers to the concentration at which the effect is half-maximal. Read a low EC50 as a more potent agent. Turning to B1, in experiment [1], the Kd worked out at 31.1 nM, the koff was 0.0109 s⁻¹ and the kon is 351000 M⁻¹ s⁻¹. In experiment [2], a half-maximal effect (EC50) was put at 5.6 nM and the “Relative to WT EC50 Fold Decrease” value stood at 1 fold. In addition, in experiment [3], binding was characterised by a dissociation constant (Kd) of 28.9 nM, the koff was found to be 0.0129 s⁻¹ and the kon was 447000 M⁻¹ s⁻¹. The “IC50, inhibition of H2-Opt peptide hydrolysis (FRET assay)” value in experiment [4] came to 29.1 nM.
